Reference: patent publication US20220153852A1 (IBIO, published 2022)
Residue numbers refer to the chain shown, from its start.

T1: recombinant cynomolgus monkey (cyno) CD25 (cynomolgus monkey, UniProt H6WS54 22-213)
T1 sequence: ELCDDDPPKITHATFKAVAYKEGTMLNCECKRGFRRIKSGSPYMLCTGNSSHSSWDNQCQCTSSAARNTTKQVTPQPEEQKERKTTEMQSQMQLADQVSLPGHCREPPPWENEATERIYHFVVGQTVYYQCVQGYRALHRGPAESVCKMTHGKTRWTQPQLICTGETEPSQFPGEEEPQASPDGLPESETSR

T2: human CD25 (ELISA antigen) (human, UniProt P01589 22-213, limits assumed)
T2 construct: The ELISA protocol is described only for cyno CD25; the human antigen's construct is not described
T2 sequence (looked up): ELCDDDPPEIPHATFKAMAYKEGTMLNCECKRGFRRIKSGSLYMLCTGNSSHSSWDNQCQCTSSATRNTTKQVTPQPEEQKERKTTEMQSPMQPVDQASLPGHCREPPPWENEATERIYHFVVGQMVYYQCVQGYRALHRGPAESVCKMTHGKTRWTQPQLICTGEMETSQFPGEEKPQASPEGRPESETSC

T3: CD25 on CD25-expressing human cells (SUDHL-1, SR786, regulatory T cells) (human, UniProt P01589 22-272)
T3 sequence (looked up): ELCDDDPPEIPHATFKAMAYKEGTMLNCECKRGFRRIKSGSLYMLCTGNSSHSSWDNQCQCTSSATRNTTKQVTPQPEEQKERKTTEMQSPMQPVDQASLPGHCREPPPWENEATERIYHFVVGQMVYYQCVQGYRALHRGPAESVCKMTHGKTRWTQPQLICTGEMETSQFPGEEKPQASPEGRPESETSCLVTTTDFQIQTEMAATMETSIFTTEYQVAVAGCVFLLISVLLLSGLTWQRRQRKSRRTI

B1: D11 (original or parental) (antibody, V domains shown)
VH: QIQLQQPGAELVRPGVSLKISCKGSGYTFTDYAMHWVRQSHAKSLEWIGVISTYSGDAIYNQKFKGKATMTVDKSSSTAYLELARLTSDDSAIYYCARGVTFDYWGQGTTVTVSS
VL: DIQMTQTTSSLSASLGDRVTITCRASQDISNYLEWYQQKQGKSPQLLVYNAKTLAEGVPSRFSGSGSGTQFSLKINSLQPEDFGSYYCQHHYDTPYTFGGGTKLEIK
notes: also called parental D11; original D11
B2: hD11-H1-L2 (antibody, V domains shown)
VH: QVQLVQSGAEVKKPGASVKVSCKASGYTFTDYAMHWVRQAPGQGLEWMGVISTYSGDAIYAQKFQGRVTMTRDTSTSTVYMELSSLRSEDTAVYYCARGVTFDYWGQGTTVTVSS
VL: DIQMTQSPSSLSASVGDRVTITCRASQDISNYLEWYQQKPGKAPKLLVYNAKTLAEGVPSRFSGSGSGTDFTLTISSLQPEDFGTYYCQHHYDTPYTFGQGTKLEIK
notes: Humanized variant of D11 (parental clone carries human IgG1)
B3: 7G7B6 (antibody, V domains shown)
VH: EVQLVESGGDLVQPRGSLKLSCAASGFTFSSYGMSWVRQTPDKRLELVATINGYGDTTYYPDSVKGRFTISRDNAKNTLYLQMSSLKSEDTAMYFCARDRDYGNSYYYALDYWGQGTSVTVSS
VL: QIVLSQSPAILSASPGERVTMTCRASSSVSFMHWLQQKPGSSPKPWIYATSNLASGVSARFSGSGSGTSYSLTITRVEAEDAATYYCQQWSSNPPAFGGGTKLEIK
B4: hD11-H3-L2 (hD11-H3h-L2) (antibody, V domains shown)
VH: B2 VH with V18L, V20I, A24G, M48I, V68A, R72V, V79A, M81L
VL: B2 VL
B5: hD11-H2-L1 (antibody, V domains shown)
VH: B2 VH with A24G, R72V, V79A
VL: B2 VL with V48I, G84A
B6: hD11-H3b-L1 (antibody, V domains shown)
VH: B2 VH with V18L, V20I, A24G, M48I, V68A, R72V, T74K, V79A, M81L
VL: B2 VL with V48I, G84A
B7: hD11-H2-L2 (antibody, V domains shown)
VH: B2 VH with A24G, R72V, V79A
VL: B2 VL
B8: hD11-H2b-L2 (antibody, V domains shown)
VH: B2 VH with A24G, R72V, T74K, V79A
VL: B2 VL
B9: hD11-H2b-L1 (antibody, V domains shown)
VH: B2 VH with A24G, R72V, T74K, V79A
VL: B2 VL with V48I, G84A
B10: hD11-H3b-L2 (antibody, V domains shown)
VH: B2 VH with V18L, V20I, A24G, M48I, V68A, R72V, T74K, V79A, M81L
VL: B2 VL
B11: hD11-H3-L1 (hD11-H3h-L1) (antibody, V domains shown)
VH: B2 VH with V18L, V20I, A24G, M48I, V68A, R72V, V79A, M81L
VL: B2 VL with V48I, G84A
B12: hD11-H1-L1 (antibody, V domains shown)
VH: B2 VH
VL: B2 VL with V48I, G84A

What follows are binders tested against T1, recombinant cynomolgus monkey (cyno) … (assay: ELISA on coated cyno CD25, OD450, curve fit).
Protocol: (§1) To test for binding to recombinant cynomolgus monkey (cyno) CD25, microtiter plates were coated with 80 ul of 1 ug/ml Cyno CD25 in 50 mM sodium carbonate pH 9.6) at 4° C. overnight. The next day, remove the protein from the wells and block with 200 ul PBS/0.1% BSA/0.05% tween20. The plate was incubated for 1 hour at room temperature. The antibodies starting at 25 nM and 3 fold serially were diluted in PBT buffer and added to the plate for incubation at RT for 1 hour. The plate was then washed and then 1:2500 dilution of HRP conjugate anti-Fab antibody was added. The plate was washed 5-10 times with PBS/tween20 to remove non-specific binders. TMB perxidase substrate and peroxidase solution were added and incubated for the time needed to develop with 80 uL of ELISA stop solution added at the end. OD measurements were then taken at […] using a plate reader (SpectraMax iD3 Plate Reader, Molecular Devices).
(§2) The ratio is indicative of a preference in binding to either cyno or human CD25.

| Binder | Top |
| --- | --- |
| B1 | 3.01 |
| B2 | 3.04 |
| B3 | 2.96 |

What follows are binders tested against T1, recombinant cynomolgus monkey (cyno) … (assay: ratio of the ELISA IC50 on cyno CD25 to that on human CD25).
Protocol: as §1, §2

| Binder | Cyno/Human |
| --- | --- |
| B1 | 1.3 |
| B2 | 42.4 |
| B3 | 1.8 |

The binders below were run against T2, human CD25 (ELISA antigen) (assay: ELISA on human CD25, OD450, curve fit).

| Binder | Top |
| --- | --- |
| B1 | 3.12 |
| B2 | 3.1 |
| B3 | 3.12 |

What follows are binders tested against T3, CD25 on CD25-expressing human cells … (assay: cell-based or functional assay).

| Binder | Treg ADCC EC50 [µg/mL] |
| --- | --- |
| B1 | 0.0135 |
| B4 | 0.0048 |
| B5 | 0.0178 |
| B6 | 0.0317 |
| B7 | 0.0133 |
| B8 | 0.0145 |
| B9 | 0.0089 |
| B10 | 0.0077 |
| B11 | 0.0683 |
| B12 | 0.0206 |
| B2 | 0.0467 |
| B3 | 0.0194 |
